Source: US20210269542A1 (POTENZA THERAPEUTICS, published 2021)
Positions count from the first letter of the chain named. Names may count otherwise. Like-named read-outs stand apart in the source and are kept apart here.

T1: human GITR-Fc (human, UniProt Q9Y5U5 26-162)
T1 construct: also called recombinant hGITR; wild type human GITR-Fc
T1 sequence: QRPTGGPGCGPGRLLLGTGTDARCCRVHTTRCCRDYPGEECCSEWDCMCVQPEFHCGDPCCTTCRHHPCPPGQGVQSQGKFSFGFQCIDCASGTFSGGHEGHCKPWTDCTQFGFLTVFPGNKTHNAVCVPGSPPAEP

T2: cyno GITR-Fc (cynomolgus monkey)
T2 construct: also called cGITR; cynomolgus GITR
T2 chain: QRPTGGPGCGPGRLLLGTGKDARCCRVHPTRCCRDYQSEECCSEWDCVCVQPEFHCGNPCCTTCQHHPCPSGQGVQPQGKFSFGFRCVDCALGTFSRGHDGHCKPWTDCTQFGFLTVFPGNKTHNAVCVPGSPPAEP

T3: cynomolgus monkey GITR expressed on HT1080 cells (cynomolgus monkey)
T3 chain: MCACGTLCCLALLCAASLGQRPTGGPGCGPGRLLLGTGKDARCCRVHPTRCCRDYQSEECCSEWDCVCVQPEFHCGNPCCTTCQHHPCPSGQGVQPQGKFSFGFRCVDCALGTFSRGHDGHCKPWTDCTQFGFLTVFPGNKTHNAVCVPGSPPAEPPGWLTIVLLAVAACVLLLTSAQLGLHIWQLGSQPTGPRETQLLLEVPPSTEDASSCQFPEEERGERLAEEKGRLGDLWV

T4: human GITR expressed on cells (human, UniProt Q9Y5U5 26-241)
T4 sequence: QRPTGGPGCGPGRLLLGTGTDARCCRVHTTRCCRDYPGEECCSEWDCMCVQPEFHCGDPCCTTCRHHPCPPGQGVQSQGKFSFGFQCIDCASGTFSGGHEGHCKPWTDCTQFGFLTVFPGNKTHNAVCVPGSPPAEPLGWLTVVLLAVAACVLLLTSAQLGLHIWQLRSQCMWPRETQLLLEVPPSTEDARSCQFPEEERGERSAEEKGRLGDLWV

B1: ABP46 (antibody, human IgG1, kappa, N297A, V domains shown)
VH: QVQLVQSGAEVKKPGSSVKVSCKASGGTFSSYAISWVRQAPGQGLEWMGGIIPISGFANYAQKFQGRVTITADESTSTAYMELSSLRSEDTAVYYCAREGGHYYSGWPYWGQGTLVTVSS
VL: EIVLTQSPATLSLSPGERATLSCRASQSVSSYLAWYQQKPGQAPRLLIYDASNRATGIPARFSGSGSGTDFTLTISSLEPEDFAVYYCQQRLVFPPTFGGGTKVEIKR
notes: IgG1 N297A, H1H2-optimized, non-TM
B2: ABP47 (antibody, human IgG1, kappa, N297A, V domains shown)
VH: QVQLVQSGAEVKKPGSSVKVSCKASGGTFVRYAISWVRQAPGQGLEWMGGIIPIFGEAQYAQKFQGRVTITADESTSTAYMELSSLRSEDTAVYYCAREGYYYGALPYWGQGTLVTVSS
VL: B1 VL with R91H, L92S
notes: as for B1
B3: ABP45 (antibody, human IgG1, kappa, N297A, V domains shown)
VH: QVQLVQSGAEVKKPGSSVKVSCKASGGTFSRGAISWVRQAPGQGLEWMGGIIPIEGTAYYAQKFQGRVTITADESTSTAYMELSSLRSEDTAVYYCARQSDYGLPRGMDVWGQGTTVTVSS
VL: DIQLTQSPSSVSASVGDRVTITCRASQGISSWLAWYQQKPGKAPKLLIYGASSLQSGVPSRFSGSGSGTDFTLTISSLQPEDFATYYCQQASLFPPTFGGGTKVEIKR
notes: as for B1
B4: trimeric human GITR ligand (ligand, UniProt Q9UNG2 50-177, looked up)
chain: QLETAKEPCMAKFGPLPSKWQMASSEPPCVNKVSDWKLEILQNGLYLIYGQVAPNANYNDVAPFEVRLYKNKDMIQTLTNKSKIQNVGGTYELHVGDTIDLIFNSEHQVLKNNTYWGIILLANPQFIS
B5: ABP20 (antibody, human IgG4 S228P, kappa)
heavy: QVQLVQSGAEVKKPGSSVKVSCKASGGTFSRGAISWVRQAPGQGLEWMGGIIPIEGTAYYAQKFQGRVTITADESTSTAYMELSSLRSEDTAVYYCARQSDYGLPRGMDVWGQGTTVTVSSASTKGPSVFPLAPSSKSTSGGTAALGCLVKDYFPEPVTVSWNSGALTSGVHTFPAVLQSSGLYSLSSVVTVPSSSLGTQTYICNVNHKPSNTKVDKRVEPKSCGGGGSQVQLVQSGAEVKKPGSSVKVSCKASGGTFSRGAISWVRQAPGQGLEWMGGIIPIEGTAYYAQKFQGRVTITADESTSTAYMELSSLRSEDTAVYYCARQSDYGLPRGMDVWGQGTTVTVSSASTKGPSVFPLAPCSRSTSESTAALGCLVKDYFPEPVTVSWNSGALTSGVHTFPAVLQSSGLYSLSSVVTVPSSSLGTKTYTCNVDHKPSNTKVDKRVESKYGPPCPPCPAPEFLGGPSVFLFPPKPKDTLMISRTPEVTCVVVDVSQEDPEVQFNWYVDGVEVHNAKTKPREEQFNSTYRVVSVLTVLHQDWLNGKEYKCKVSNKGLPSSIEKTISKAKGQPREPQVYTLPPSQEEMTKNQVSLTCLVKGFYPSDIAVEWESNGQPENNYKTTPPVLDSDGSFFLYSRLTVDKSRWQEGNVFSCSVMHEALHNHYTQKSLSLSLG
light: DIQLTQSPSSVSASVGDRVTITCRASQGISSWLAWYQQKPGKAPKLLIYGASSLQSGVPSRFSGSGSGTDFTLTISSLQPEDFATYYCQQASLFPPTFGGGTKVEIKRTVAAPSVFIFPPSDEQLKSGTASVVCLLNNFYPREAKVQWKVDNALQSGNSQESVTEQDSKDSTYSLSSTLTLSKADYEKHKVYACEVTHQGLSSPVTKSFNRGEC
notes: TM format, N-terminal Fab: VH + IgG1 CH1 + GGGGS + VH + IgG4 S228P
B6: ABP26 (antibody, human IgG4 S228P, kappa)
heavy: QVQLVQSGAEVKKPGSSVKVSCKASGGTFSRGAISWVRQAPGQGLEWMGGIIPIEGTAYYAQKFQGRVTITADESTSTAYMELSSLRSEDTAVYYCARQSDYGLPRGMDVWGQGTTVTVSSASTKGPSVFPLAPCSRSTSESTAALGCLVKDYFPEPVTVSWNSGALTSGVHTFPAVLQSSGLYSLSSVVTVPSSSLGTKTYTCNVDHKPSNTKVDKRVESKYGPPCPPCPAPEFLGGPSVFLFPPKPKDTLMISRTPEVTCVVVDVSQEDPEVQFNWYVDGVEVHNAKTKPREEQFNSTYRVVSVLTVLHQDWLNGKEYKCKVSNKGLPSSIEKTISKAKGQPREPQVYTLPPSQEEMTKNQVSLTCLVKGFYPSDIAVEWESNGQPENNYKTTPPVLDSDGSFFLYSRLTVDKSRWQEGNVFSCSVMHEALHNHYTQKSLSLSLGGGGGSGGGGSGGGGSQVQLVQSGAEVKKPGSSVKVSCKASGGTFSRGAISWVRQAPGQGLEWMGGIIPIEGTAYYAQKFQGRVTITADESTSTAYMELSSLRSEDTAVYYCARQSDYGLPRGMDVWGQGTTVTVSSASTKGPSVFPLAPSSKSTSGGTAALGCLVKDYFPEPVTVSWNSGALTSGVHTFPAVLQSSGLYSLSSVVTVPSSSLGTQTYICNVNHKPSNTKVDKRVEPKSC
light: B5 light
B7: ABP44 (antibody, human IgG1, kappa, N297A, V domains shown)
VH: QVQLVQSGAEVKKPGSSVKVSCKASGGTFSSYYISWVRQAPGQGLEWMGGIIPVPGTANYAQKFQGRVTITADESTSTAYMELSSLRSEDTAVYYCARAGGGYARGDHYYGMDVWGQGTTVTVSS
VL: not shown
notes: as for B1
B8: ABP49 (antibody, human IgG1, kappa, N297A, V domains shown)
VH: QVQLQESGPGLVKPSQTLSLTCTVSGGSISSGGAVWSWIRQHPGKGLEWIGGIAYSGSTYYNPSLKSRVTISVDTSKNQFSLKLSSVTAADTAVYYCARDSVRGYGDYGGHHAFDIWGQGTMVTVSS
VL: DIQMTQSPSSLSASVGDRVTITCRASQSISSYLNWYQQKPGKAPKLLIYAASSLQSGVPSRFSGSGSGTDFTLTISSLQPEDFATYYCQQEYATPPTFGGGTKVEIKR
notes: as for B1
B9: ABP42 (antibody, human IgG1, kappa, N297A, V domains shown)
VH: QLQLQESGPGLVKPSETLSLTCTVSGGSISSSSYAWGWIRQPPGKGLEWIGSIYYSGSTYYNPSLKSRVTISVDTSKNQFSLKLSSVTAADTAVYYCARDSGRGYGDYGGHHAFDIWGQGTMVTVSS
VL: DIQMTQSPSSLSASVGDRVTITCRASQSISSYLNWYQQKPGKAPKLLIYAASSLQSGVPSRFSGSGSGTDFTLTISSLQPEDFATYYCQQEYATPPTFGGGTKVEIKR
notes: IgG1 N297A, non-optimized, non-TM

Key:
[1] = molecular target: T1, human GITR-Fc; assay: BLI Octet RED384, ABP on AHQ sensor, 100 nM antigen, single concentration;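 further: association and dissociation each tracked over 180 s, with dissociation run in antigen-free buffer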
Method: (§1) The sensors were quenched by dipping into an unrelated human IgG1 antibody to prevent non-specific binding of GITR-Fc antigens to the sensor. The sensors were equilibrated in assay buffer for 30 minutes. Baseline was established by dipping the sensors into assay buffer for 60 seconds. Association was monitored for 180 seconds in 100 nM of recombinant antigens, and dissociation was followed for 180 seconds in buffer alone. KD was determined using the kinetic function of the FORTEBIO® Analysis Software using a 1:1 binding model.

[2] = molecular target: T2, cyno GITR-Fc; assay: as above
Method: as §1

[3] = molecular target: T3, cynomolgus monkey GITR expressed on …; assay: cell-based or functional assay
[4] = molecular target: T4, human GITR expressed on cells; assay: cell-based or functional assay
[5] = molecular target: T4, human GITR expressed on cells; assay: cell-based or functional assay; remark: listed apart in the source
[6] = molecular target: T3, cynomolgus monkey GITR expressed on …; assay: cell-based or functional assay
[7] = molecular target: T4, human GITR expressed on cells; assay: cell-based or functional assay; remark: listed apart in the source
[8] = molecular target: T3, cynomolgus monkey GITR expressed on …; assay: cell-based or functional assay
[9] = molecular target: T4, human GITR expressed on cells; assay: cell-based or functional assay; remark: listed apart in the source
[10] = molecular target: T3, cynomolgus monkey GITR expressed on …; assay: cell-based or functional assay
[11] = molecular target: T4, human GITR expressed on cells; assay: cell-based or functional assay; remark: listed apart in the source
[12] = molecular target: T4, human GITR expressed on cells; assay: cell-based or functional assay; remark: listed apart in the source

| Binder | Kd [1] | Kd [2] | EC50 in cynomolgus HT1080 (IL-8 induction), n = 1 [3] | EC50 in human HT1080 (IL-8 induction), n = 2 [4] | Average EC50 in human HT1080 (IL-8 induction) [12] | further results |
| --- | --- | --- | --- | --- | --- | --- |
| B1 | 59.8 nM | 111 nM | 6.9 nM | 1.2 nM | – | – |
| B2 | 44.3 nM | 88.1 nM | 11.8 nM | 4.1 nM | – | – |
| B3 | 112 nM | – | 15.1 nM | 10.5 nM | – | – |
| B4 | – | – | – | – | 0.37 nM | EC50, Jurkat cells expressing human GITR (run with ABP 1) [5]: 0.9 nM; EC50, Jurkat cells expressing human GITR (run with ABP 2) [5]: 0.91 nM; EC50, Jurkat cells expressing human GITR (run with ABP 3) [5]: 0.85 nM; EC50, Jurkat cells expressing human GITR (run with ABP 4) [5]: 1.13 nM; EC50, Jurkat cells expressing human GITR (run with ABP 5) [5]: 1.01 nM; EC50, Jurkat cells expressing human GITR (run with ABP 6) [5]: 0.9 nM; EC50, Jurkat cells expressing human GITR (run with ABP 7) [5]: 0.81 nM; EC50, Jurkat cells expressing human GITR (run with ABP 8) [5]: 0.89 nM; Average EC50 in cynomolgus HT1080 (IL-8 induction) [6]: 0.17 nM; Average EC50 in human HT1080 (IL-8 induction) [7]: 0.43 nM; Average EC50 in cynomolgus HT1080 (IL-8 induction) [8]: 0.076 nM; Average EC50 in human HT1080 (IL-8 induction) [9]: 0.12 nM; EC50 in cynomolgus HT1080 (IL-8 induction) [10]: 0.2 nM; EC50 in human HT1080 (IL-8 induction) [11]: 0.4 nM |
| B5 | 4.4 nM | 5.2 nM | – | – | 0.63 nM | – |
| B6 | 5.1 nM | 5.1 nM | – | – | 0.63 nM | – |
| B7 | 46.5 nM | – | 28 nM | 4.2 nM | – | – |
| B8 | 63.5 nM | – | 65.8 nM | 2.7 nM | – | binding result [2]: no binding (tested: 100 nM) |
| B9 | 11.5 nM | – | – | 17.8 nM | – | binding result [2]: no binding (tested: 100 nM) |
